How the values were obtained:
[1] = biological target: Soluble monovalent SARS-CoV-2 RBD (RBD-H) (SARS-CoV-2 (Wuhan, assumed), UniProt P0DTC2); assay: SPR; conditions: both partners purified
[2] = biological target: Biotinylated SARS-CoV-2 (Wuhan) RBD (SARS-CoV-2 (Wuhan), UniProt P0DTC2, biotin (EZ-Link Sulfo-NHS-LC-biotin per p-0040; Lys15 biotinylation site within the N-terminal AviTag per fig-0003 and p-0075)); assay: SPR; conditions: both partners purified

Binder	binding result [1]	binding result [2]	Kd [2]
FI-3A antibody (antibody, V domains shown, source: ExpiCHO, transfected, purified (MabSelect SuRe); copies: 2 + 2) VH: EVQLLESGGGLIQPGGSLRLSCAASGFTVSSNYMSWVRQAPGKGLEWVSVIYSGGSTYYADSVKGRFTISRDNSKNTLYLQMNSLRAEDTAVYYCARDHVRPGMNIWGQGTMVTVSS VL: not shown	binds	binds	
REGN10987 therapeutic antibody (antibody, V domains shown, source: ExpiCHO, transfected, purified (MabSelect SuRe); copies: 2 + 2) VH: QVQLVESGGGVVQPGRSLRLSCAASGFTFSNYAMYWVRQAPGKGLEWVAVISYDGSNKYYADSVKGRFTISRDNSKNTLYLQMNSLRTEDTAVYYCASGSDYGDYLLVYWGQGTLVTVSS VL: QSALTQPASVSGSPGQSITISCTGTSSDVGGYNYVSWYQQHPGKAPKLMIYDVSKRPSGVSNRFSGSKSGNTASLTISGLQSEDEADYYCNSLTSISTWVFGGGTKLTVL		binds	
FD-11A IgG1 antibody (antibody, V domains shown, also called IgG1 FD-11A; source: ExpiCHO, transfected, purified (MabSelect SuRe); copies: 2 + 2) VH: EVQLVESGGGVVQPGRSLRLSCAASGFTFSSYGMHWVRQAPGKGLEWVAVIWYDGSNKYYADSVKGRFTISRDNSKNTLYLQMNSLRAEDTAVYYCAKGPDILTGYYNYYYYGMDVWGQGTMVTVSS VL: QSVLTQPPSVSGAPGQRVTISCTGSSSNIGAGYDVHWYQQLPGTAPKLLIYGNSNRPSGVPDRFSGSKSGTSASLAITGLQAEDEADYYCQSYDSSLSGFYVVFGGGTKLTVL			1.23 µM
EY6A antibody (antibody, V domains shown, source: ExpiCHO, transfected, purified (MabSelect SuRe); copies: 2 + 2) VH: EVQLVESGGGVVQPGRSLRLSCAASAFTFSSYDMHWVRQAPGKGLEWVAVISYDGSNKYYADSVKGRFTISRDNSKNTLYLQMNSLRAEDTAVYYCAKDGGKLWVYYFDYWGQGTLVTVSS VL: not shown	binds	binds	
FD-5D antibody (antibody, V domains shown, source: ExpiCHO, transfected, purified (MabSelect SuRe); copies: 2 + 2) VH: EVQLVESGGGLVQPGGSLRLSCAASGFTFSSYSMNWVRQAPGKGLEWVSYISSSSSTIYYADSVKGRFTISRDNAKNSLYLQMNSLRAEDTAVYYCASPGGITAAGTSVLFGYYGMDVWGQGTTVTVSS VL: not shown	binds	binds	

Source: PMC11695720 (Nature Communications, 2025)
